Measured values as given in article PMC4092090, “Investigation of a MMP-2 Activity-Dependent Anchoring Probe for Nuclear Imaging of Cancer” (PLoS ONE, 2014).

Key:
[1] = type: physicochemical; settings: pH 7.4
Procedure: The experimental determination of probe partition coefficients (log P values) was performed in 1-octanol and 0.02 M phosphate buffer pH 7.4 where the two phases were pre-saturated with each other. 1-Octanol (200 µl) and phosphate buffer (200 µl) were pipetted into LoBind Eppendorf tubes containing 0.37 MBq of probes. The tube was vortexed for 10 seconds, and centrifuged (5 min, 4000×g). Aliquots (50 µl) from the 1-octanol and buffer phases were transferred into two test tubes for radioactivity counting with a NaI well-type scintillation counter (1470 WIZARD, Perkin Elmer, Kanagawa, Japan). The partition coefficient was calculated using the equation P = (counts/µl in 1-octanol)/(counts/µl in buffer).

[2] = test system: HT1080 tumor bearing mice; parameters: species or system mouse (Balb/c nu-nu); settings: mouse, in vivo, iv
Procedure: (§1) […]3000 and […] (37 kBq, 100 μl in PBS including 3% bovine serum albumin and 0.1% Tween 80) were injected intravenously into the tail vein of tumor bearing mice. The mice were sacrificed at various post-injection time points (n = 3 for each time point), and the organs of interest including the tumor tissues were collected for determination of the weights. The radioactivity of each sample was measured with a NaI well-type scintillation counter. From fitting to the two phase decay curves for blood radioactivity data analyzed by GraphPad Prism 6 (GraphPad Software, San Diego, CA), whole body pharmacokinetic parameters such as blood half-lives, distribution volume, mean residence time and total clearance were calculated for each of the probes and the values compared. Simple pharmacokinetic analysis using a single tissue compartment model was applied to the biodistribution data to calculate rate constants (K1 and k2) for radioactivity transfer from blood to tumor and clearance from tumor to blood by PMOD version 3.2. In addition, MDAP3000 (7.4 MBq in 200 μl) was injected intravenously into the tail vein of tumor bearing mice for metabolite analysis in tumors excised 3, 6, and 24 hr post injection (n = 2 each). Tumor homogenates were prepared on ice and insoluble material was removed by centrifugation after methanol treatment. The resulting supernatant was analyzed by RP-HPLC.

HT1080 tumor xenograft = test system: HT1080 tumor xenograft; parameters: species or system mouse (Balb/c nu-nu); settings: mouse, in vivo
Procedure: as §1

[3] = test system: HT1080 human fibrosarcoma cells; experiment: Cellular uptake study; type: cell-based; settings: for Cellular accumulation (radioactivity in tumor cells): 5×10^5 HT1080 cells, FBS-free DMEM, 37 kBq probe, 30 min incubation, radioactivity counting, Fig. 3a
Procedure: HT1080 human fibrosarcoma cells were purchased from American Type Culture Collection (ATCC, Manassas, VA USA) and cultured in DMEM with low glucose (Invitrogen), 10% fetal bovine serum (FBS), and penicillin/streptomycin. MMP-2 cDNA was cloned into the pENTR vector (Invitrogen) and inserted into the pLenti6 vector (Invitrogen) as previously described, [7]. […] Protein quantitation was performed by BCA protein assay (Thermo Fisher Scientific, Inc. Rockford, IL USA). The cellular uptake study of MDAP3000 pretreated with activated MMP-2 (63 nM) in the presence or absence of GM6001 (100 µM) was performed as described above.

Substance	log P (partition coefficient) [1]	Blood half-life, Fast [2]	Blood half-life, Slow [2]	Clearance (total clearance) [2]	Distribution volume [2]	Mean residence time [2]	K1, rate constant for transfer from blood to tumor, Mean (HT1080 tumor xenograft; iv)	k2, rate constant for clearance from tumor to blood, Mean (HT1080 tumor xenograft; iv)	Cellular accumulation (radioactivity in tumor cells) [3]	Slower washout rate from the tumor (k2) compared to MDAPCV (HT1080 tumor xenograft)	Increased cellular uptake of MMP-2 pretreated probe with additional MMP inhibitor ([3]; HT1080 cells, activated MMP-2 (63 nM) plus GM6001 (100 µM), Fig. 3c)	Cellular accumulation of probe pretreated with MMP-2 ([3]; HT1080 cells, probe pretreated with activated MMP-2 (63 nM), 30 min, Fig. 3c)
Palmitoyl-Dap(p-SCN-Bn-DTPA-^111In)-10-Adc-Gly-Pro-Leu-Gly-Val-Arg-Gly-Lys(ivDde)-PEG1000 [MDAP1000]	−0.56±0.13	4.0×10 min	43.3 h	0.0083 mL/min	1.71 mL	210 min	0.00071 mL/g/min	0.0011 min⁻¹	high radioactivity accumulation			
Palmitoyl-Dap(p-SCN-Bn-DTPA-^111In)-10-Adc-Gly-Pro-Leu-Gly-Val-Arg-Gly-Lys(ivDde)-PEG3000 [MDAP3000]	−0.95±0.12	5.6×10 min	7.17 h	0.0079 mL/min	1.94 mL	250 min	0.0013 mL/g/min		significantly lower radioactivity	approximately seven-fold	completely blocked	accumulated in cells to higher levels
